Target: MBP-CBF1 (Arabidopsis thaliana, UniProt P93835 1-213)
Assay: EMSA; NADPH, Trx reductase, Trx-h2 (reduced CBF1); EMSA kit (Thermo Fisher), poly(dI-dC) binding buffer, NADPH/Trx reductase/Trx-h2 system, 6% polyacrylamide gel; proteins dialyzed in 20 mM HEPES-NaOH pH 8.0; salt and temperature not stated
Conditions: protein: recombinant; tags: MBP (N-terminal, pMAL vector); blunt

MBP-CBF1, sequence (P93835 whole entry): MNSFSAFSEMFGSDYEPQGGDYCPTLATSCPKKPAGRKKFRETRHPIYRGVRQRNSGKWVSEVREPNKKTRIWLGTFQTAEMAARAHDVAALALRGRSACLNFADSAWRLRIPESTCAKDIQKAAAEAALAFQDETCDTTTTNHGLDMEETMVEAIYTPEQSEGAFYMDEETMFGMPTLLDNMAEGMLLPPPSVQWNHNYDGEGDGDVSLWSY

B1: COR15a promoter CRT/DRE probe (dsDNA)
DNA 1: ATTTCATGGCCGACCTGCTTTTT
DNA 2: AAAAAGCAGGTCGGCCATGAAAT
- binding result: binds

— paper PMC8389195, “Demyristoylation of the Cytoplasmic Redox Protein Trx-h2 Is Critical for Inducing a Rapid Cold Stress Response in Plants”
